# Data as given in patent US20030064396A1 (published 2003).
# T1: human androgen receptor, complete (expression vector pSG5AR) (human, UniProt P10275 1-920, 35S-methionine-labeled in the pull-down of Example 4 (in vitro translated, T7 TNT reticulocyte lysate))
# T1 construct: mature; also called complete AR; 35S-methionine-labeled androgen receptor
# T1 sequence (looked up): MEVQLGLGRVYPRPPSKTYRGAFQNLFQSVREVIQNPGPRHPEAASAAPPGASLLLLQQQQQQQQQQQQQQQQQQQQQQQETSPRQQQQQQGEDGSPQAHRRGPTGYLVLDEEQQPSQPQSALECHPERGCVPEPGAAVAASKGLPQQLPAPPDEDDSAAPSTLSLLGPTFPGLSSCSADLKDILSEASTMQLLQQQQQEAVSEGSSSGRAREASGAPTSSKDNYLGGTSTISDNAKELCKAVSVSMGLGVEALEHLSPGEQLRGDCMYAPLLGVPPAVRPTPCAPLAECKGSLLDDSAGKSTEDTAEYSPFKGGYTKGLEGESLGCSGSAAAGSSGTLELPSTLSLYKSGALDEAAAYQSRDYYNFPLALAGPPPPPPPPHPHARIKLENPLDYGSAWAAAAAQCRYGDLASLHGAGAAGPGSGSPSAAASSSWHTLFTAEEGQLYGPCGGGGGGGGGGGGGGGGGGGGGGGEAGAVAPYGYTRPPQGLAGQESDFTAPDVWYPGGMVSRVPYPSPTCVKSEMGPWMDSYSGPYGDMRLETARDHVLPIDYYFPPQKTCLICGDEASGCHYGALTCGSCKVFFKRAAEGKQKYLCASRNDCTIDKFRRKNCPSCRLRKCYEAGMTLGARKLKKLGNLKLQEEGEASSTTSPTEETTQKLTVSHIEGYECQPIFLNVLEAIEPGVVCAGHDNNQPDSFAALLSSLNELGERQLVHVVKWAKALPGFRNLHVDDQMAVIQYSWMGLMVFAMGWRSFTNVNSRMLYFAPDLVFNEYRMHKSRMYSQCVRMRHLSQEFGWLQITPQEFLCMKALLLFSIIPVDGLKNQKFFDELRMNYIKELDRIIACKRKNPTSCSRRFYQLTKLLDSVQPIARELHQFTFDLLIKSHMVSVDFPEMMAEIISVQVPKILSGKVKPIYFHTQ
# B1: GST-ARAP3: ARAP3 fragment (AS 1735 to 1840 of Seq. ID No. 14) as a GST fusion protein (vector pGEX-KG) (other)
# chain: LDAMHTLREKYGIKSHCHCTNKQNLQVGNFPTMNGVSQVLQNVLNHSNKISLCMPESQQQNTPPKSEKNGGSSPESDVGTDNKLTPPESQSPLHWLADLAEQKARE
# notes: also called ARAP3 fusion protein; GST-ARAP3 spherical particles; not shown: glutathione S-transferase (GST) tag of the vector pGEX-KG (Pharmacia)
# B2: ARAP3 fragment (AS 1430-1539 of Seq. ID No. 20) as fusion protein with VP16 (CMX-VP16-ARAP3-III) (other)
# chain: DLLDAMHTLREKYGIKSHCHCTNKQNLQVGNFPTMNGVSQVLQNVLNHSNKISLCMPESQQQNTPPKSEKNGGSSPESDVGTDNKLTPPESQSPLHWLADLAEQKAREEK
# notes: Expressed in transfected human PC3 cells; also called ID No. 20; not shown: VP16 fusion partner from the vector CMX-VP16
# Experiments:
# [1] = biological target: human AR fragment coding for the amino acids 325 to 919 (AR2) (human) (UniProt P10275); test: cell-based or functional assay
# [2] = biological target: T1, human androgen receptor, complete …; test: GST pull-down of 35S-labelled AR; binding ratio against GST-empty, corrected for the protein amounts by Western blot, Exp. 2
# Source text: (§1) A GST pull-down experiment is characterized by an experimental procedure, which allows binding of an in vitro expressed GST fusion protein to a similar in vitro expressed and radioactively labeled protein, subsequent separation from non-interacting proteins and detection and identification of the bound protein as a measure of the binding.
# [3] = biological target: T1, human androgen receptor, complete …; test: GST pull-down of 35S-labelled AR; binding ratio against GST-empty, corrected for the protein amounts by Western blot, Exp. 1
# Source text: as §1
# [4] = biological target: T1, human androgen receptor, complete …; test: GST pull-down of 35S-labelled AR; binding ratio against GST-empty, corrected for the protein amounts by Western blot, Exp. 4
# Source text: as §1
# [5] = biological target: T1, human androgen receptor, complete …; test: GST pull-down of 35S-labelled AR; binding ratio against GST-empty, corrected for the protein amounts by Western blot, Exp. 3
# Source text: as §1
# [6] = biological target: T1, human androgen receptor, complete …; test: mammal hybrid test, VP16 fusion, luciferase reporter in PC3 cells
molecule,measurement,setting,value
two-hybrid clone with an insert comprising 327 base pairs coding for part of the ORF of KIAA1380 (ARAP3) (from UniProt Q15652 1915-2023),yeast-2-hybrid screen with and without 10^-6 mol DHT; lacZ-positive clones (β-galactosidase assay),[1],40 times
B1,Ratio GST-ARAP3/GST-empty,[2],1120 Ratio
same,Ratio GST-ARAP3/GST-empty,[3],26.5 Ratio
same,Ratio GST-ARAP3/GST-empty,[4],> 100 Ratio
same,Ratio GST-ARAP3/GST-empty,[5],> 100 Ratio
B2,binding result,[6],binds
